Assay: yeast display, Sf9 membrane polyspecificity reagent, FACS + sequencing; frameworks hold sequencing errors
Procedure, shortened: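 Synthetic nanobody libraries on Saccharomyces cerevisiae BJ5465 were galactose-induced for 36–48 hours, stained 1 hour at 4 °C with 10% biotinylated, detergent-solubilized Sf9 membrane reagent and enriched on streptavidin microbeads. FACS then separated cells into low and high (top ~1%) gates by anti-HA (expression) and streptavidin (reagent binding) fluorescence. Genes were colony-PCR amplified, MiSeq 2 × 250 sequenced and CDR-length filtered. A clone's polyreactivity label is that of its gate of origin.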

| Sequence | polyreactivity (PSR sort gate) |
| --- | --- |
| QVQLVESGGGLVQAGGSLRLSCAASGRIFARNAMGWYRQAPGKERELVAAISSSGGTYYADSVKGRFTISRDNAKNTVYLQMNSLKPEDTAVYYCNARVRTQQRWVDYWGQGTQVTVSS | high polyreactivity |
| QVQLVESGGGLVQAGGSLRLSCAASGSIFKSYAMGWYRQAPGKERELVAAITWRSGRTYYADSVKGRFTISRDNAKNTVYLQMTSLKPEDTAVYYCAADDTSYYIYSYDYWGQGTQVTVSS | low polyreactivity |
| QVQLVESGGGLVQAGGSLRLSCAASGRTFGAYAMGWYRQAPGKERELVAAISSSGGSTYYADSLKGRFTISRDNAKNTVYLQMNSLKPEDTAVYYCAKGWHRGVGFGYWGQGTQVTVSS | high polyreactivity |
| QFQLVESGGGLVQAGGSLRLSCAASGINFGRNTMGMYRQAPGKERELVAAIDSGGNTYADSVKGRFTISRDNAKNTVYLQMNSLKPEDTAVYFCAVDGGEFSSYGYWGQGTQVTVSS | low polyreactivity |
| QVQLVESGGGLVQAGGSLRLSCAASGSIFYRYAMGWYRQAPGKVRELVAAISSGSSTHYADSVKGRFTISRDNAKNTVYLQMNSLKPEDTAVYYCAARYRAYTSTRRFDYWGQGTQVTVSS | high polyreactivity |
| QVQLVESGGGLVQAGGSLRLSCAASGSIFALYTMGWYRPAPGKERELVAAISRRGGNTYYADSVKGRFTISRDNAKNTVYLQMNSLKPEDTAVYYCNADRLRSTHDYWGQGTQVTVSS | high polyreactivity |
| QEQLQERAAWCRRAGSLRLSCAASGNISDYYFMGWYRQAPGKERELVAAIAPGSNTYYADSVKGRFTISRDNAKNTVYLQMNSLKPEDTAVCFCAANSTQYTWFDYWGQGTQVPVSS | low polyreactivity |
| QVQLVESGGGLVQAGGSLRLSCAASGRTLSRNAMGWSRQAPGKEREFVAAISSRGTSTYYADSVKGRFTISRDNAKNTVYLQMNSLKPEDTAVYYCATTLGGNYGYDYWGQGTQVTVSS | high polyreactivity |
| QVQLVESGGGLVQAGGSLRLSCASSGYIFGRYAMGWYRQAPGKERELVAAISSTGDSTYYADSVKGRITISRDNAKNTVYLQMNSLKPEDTAVYYCNAVVPRYSYGRYYYWGQCTQVTVSS | high polyreactivity |
| QVQLVESGGGLVQAGGSLRLSCAASGFTLSYYAMGWYRQAPGKERELVAAMTWSDTSTYYADSVKGRFTISRDKAKNTVYVQMNSLKPEDTAVYYCAAEDEWVTWGWGYYYWGQGTQVTVSS | high polyreactivity |
| QVQLVESGGGLVQAGGSLRLSCAASGFIFGYYAMGGYRQAPGKERELVATIRQTGGSTRYADSVKGRFTISRDNAKNTVYLQMNSLIPEDTAVYYCAAYKWPSWRTWPYDSWGQGPQVTVSS | high polyreactivity |
| QVQLGESGGGLVQAGGSLRLSCAASGFIFPIYAMGWYIKSPVTERELVAVISGSGGSTYYADSVKGRFTISRDNAKNTVYLLMNSLKPEDTAVYYCAALGRNVAVYKGGYWGQGNQVTVSS | low polyreactivity |
| QVQLVESGGGLVQAGGSLRLSCAASGRIFYLYAMGWYRQAPGKERELVARITSGSGTYYADSVKGRFTISRDNAKNTVYLQMNSLKPEDTAVYYCAAREPGVGYVGHYTGLDYWGQGTQVTVSS | low polyreactivity |
| QFQHVESGGGLDQARGRLRLSCAASGYTFAKYTMGSYRQAPGKERELVAAISRGGSTTYADSVKGRFTISRDNAKNTVYLQMNSLKPEDTAVYDCAASGTKREDGYSLGYPRAGDYWGQGTQVTVSS | low polyreactivity |
| QVQLVESGGGLVQAGGSLRLSCAATGFTFRYNAMGWYRQAPGKERELGAAISIGGTTNYADSVKGRFTISRDNAKNTVYLQMNSLKPEDTAVYYCNALGTYFRRYDYWGQGTQVTVSS | low polyreactivity |
| QVQLVESGGGLVQAGGSLRLSCAAYGFIIARNAMGWYRQAPGKERELVAAISAAGGRTYYADSVKGRFTISRDNAKITVYFQMNSLKPEDTAVYYCAARRDGRCGSYNYWGQGTQVTVSS | high polyreactivity |
| QVQLVESGGGLVQAGGSLRLSCAASGRIFGGNTMGWYRQAPGKEREFVAAITQSGTRTYYADSVKGRFTISRDNAKNTVYLQMNSLKPEDTAVYYCAATWRQHPGSMGYWGQGTQVTVSS | high polyreactivity |
| QVQLVESGAGLVQAGGSLRLTCAASGSTFLDMGLYRQAPAKEREFVASISLSGGSTYYADSVKGRFTISRDNAKNTVYLQMNSLKPEDTAVYYCNAEAWWYFWFDYWGQGTQVTVSS | low polyreactivity |
| QVQLVESGGGLVQAGGSLRLSCAASGSIFDWYAIGWYRQAPGKEGELVAAISSGDSTYYADSVKGRFTISRDNAKNTVVLQMNSLKAEETSVSDCAAVTKLSGIRYNYWGQGSQVTVSS | low polyreactivity |
| QVQLVESGGGLVQAGGSLRLSCAASGSTFKKYAMGWYRQAPGKERELVAAITGSGGRTYYADSVKGRFTISRDTAKNTVYLQMNSLKPEDTAVYYCANLNNYGYDYWGQGTQVTVSS | high polyreactivity |
| QVQLVESGGGLVQAGGSLRLSCAASGSTFYYAMGWYRQAPGKEMELVASITFSTGSTYYADSVKGRFTISRDNAKNTVYLQMNSLKPEDTAVYYCATGVDTYSLTVEHDSWGQGTQVTVSS | low polyreactivity |
| QVQLVESGGGLVQAGGSLRLSCAASGRIFSKNVRGWYRQAPGKERELVADISNTGRTYYADSVKGRFKISRDNAKNTVYLQMNSLKPEDTAVYYCAADIAYRYFAVEFSSYTGDYWGQGTQVTVSS | low polyreactivity |

| Sequence | polyreactivity (PSR sort gate) |
| --- | --- |
| QFQLLESGGGLVQAGGSLRLSCAASGSIFRSNTMGWSRQAPGKAREFVAAISRRGSRTYADSVKGRFTISRDNAKNTVYLQMNSRKPEDTAVYYCAAERGYQAHPGQGDYWGQGTQVTVSA | high polyreactivity |
| HVQLVESGGGLVQAGGSLRLSCAASGSIFDTYAMGWYRQAPGKERELVAAINFSDGDTYYADSVKGRFTSSRDNSKNTVYLQLNSLKPEDTAVYDCAAEVWDPPEYYDEYDYWGQGTQVTVSS | low polyreactivity |
| QVQLVESGGGLVQAGGSLRLSCAASGLTFRYYTMGWYRQAPGKERELVASINIRGGSTYYADSVKGRFTISRDNAKNTVYLQMNSLKAEDTSVYYCNNRYGFSFGYWGQGTQVTVSS | high polyreactivity |
| QVQLVESGGGLVQAGGSLRLSSAASGIIFGVYGMGWYRPAPGKERELVASIRYSSVRTYYADSVKGRFTISRDNAKNTVYLQMNSLKPEDTAVYYCAKYYVWPSYGYWGQGTQVTVSS | high polyreactivity |
| QVQLVESGGVLVQAGGSLRLSCAASGSIFSGYSMGWYRQAPGKERELVAAITWNGGSTYYADSVKGRFTISRDNAKNTVYLQMNILKPEDTAVYYCAAERAARFNYWGQGTQVTVSS | high polyreactivity |
| QVQLVESGGGLVQAGGSLRLSCAASGRTFPYYVMGWYRQAPGKERELVAAIRRTGGSTYYADSLKGRFTISRDNAKNTVYLQMNSLKPEDTAVYYCTKRHSILYEGGYDYWGQGTQVTVSS | low polyreactivity |
| QVQLVESGGGLVQAGGSLRLSCAASGGIFPYYVMGWYRQAPGKERELVAAINSGGTTYYADSVKGRFTISRDNAKNTVYLQMNSLKPEDTAVYYCAAYYAGFGYNYWGQGTQVTVSS | low polyreactivity |
| QVQLVESGGGLVQAGGSLRLSCAASGRTIDSNAMGWYRQAPGKERELVATIDRGGSTNYADSVKGRFTISRDNAKNTVYLQMNSLKPEDTAVYYCATRGHYHAFYYTYPRYDSWGQGTQVTVSS | low polyreactivity |
| QVQLVESGGGLVQAGGSLRLSCAASGLTFGYYAMGWYRQAPGKERELVAAISRGSSTYYADSVKGRFTISRDNAKNTVYLQMNSLKPEDTAVYYCNALFSYGYWRVRYIVTQYDYWGQGTQVTVSS | high polyreactivity |
| QVQLVESGGGLVQAGGSLRLSCAASGSTFYPYGMGWYRQAPGNERELVAAITDSGGSTYYADSVKGRFTISRDNAKNTVYLQMNSLKPEDTAVYYCAKTYWYPWRASLWHEYDYWGQGTQVTVSS | low polyreactivity |
| QVQLVESGGGLVQAGGSLRLSCAASGRTFYYNAMGWSRQATGKERELVAAISGRAGSTYYADSVKGRYTISRDNAKNTVYLQMNSLKPEDTAVYYCNAVRYKYTGRFGYWGQGTQVTVSS | high polyreactivity |
| QVQLVESGGGLVQAGGSLRLSCAASGYTFTSNDMGWYRQAPGKERELVAAITWSGGTTYYADSVKGRFTISRDNAKNTVYLQMNSLKPEDTAVYYCAAESTLPIIDRDDYWGQGTQVTVSS | low polyreactivity |
| QVQLVESGGGLVQSGGSLRLSCAASGSNFITYAMGWYRQAPGKERELVAAIRDSGDRTYYADSVKGRFTISRDNAKNTVYLQMNSLKPEDTAVYYCNARWQEPLKYDYWGQGTQVTVSS | low polyreactivity |
| QVQLVESGGGLVQAGGSLRLSCAASGRTFSNYAMGWYRQAPGKERELVAAITGSGGSTYYADSVKGRFTISRDNAKNTVYLQMHSLKPEDTAVYYCNAYRASKYLTGNGHDYWGQGTQVTVSS | low polyreactivity |
| QVQLVESGGGLDQAGGSLRLSCAASGFIFDYYAMGWYRQPPWKERELVAAITSGDSTNYADSVKGRFTISRDNAKNTVYLQMNSLKPEDTAVYYCATRFGDRTVSYDSWGQGTQVTVSS | low polyreactivity |
| QVQLVESGGGLVQAGGSLRLSCAASGITFIGYPMGWYRQAPGKERELVASITSGANTNYADSVKGRFTISRDNAKNTVYLQMNSLKPEDTAVYYCAAPEHGTYANILGEPLDYWGQGTQVTVSS | low polyreactivity |
| QVQLVESGGGLVQAGGSLRLSCAASGGTFRTYAMGWYRQAAGKERELVAAITGSGGRTYYADSVKGRFTISRDNAKNTVYLQMNSLKPEDTAVYDCNTGPVYQGYHWGQGTQVTVSS | high polyreactivity |
| QVQLVESGGGLYQAGGSLRLSCAASGIIFKSYLMGWDRQAPGKEREFVARITYRGGSTYYADSVKGRFTISRDNAKYTFNLQMNSLNQEDTAVYYCIARVRRRRYKYDYWGQGTQVTVST | high polyreactivity |
| QVQLVESGGGLVQAGGSLRLSCAASGRTFYDYAMGWYRQAPGKESEFVAAITDRDASTSYADSVKGRFTISRDNAKNTVYLQMNSLKPEDTAVYYCAADQYWYKPYVGELYDYDYWGQGTQVTVSS | low polyreactivity |
| QVQLQESGGGLVQAGGSLRLSCAASGYIILQYAMGWYRPAPGKERELVASIARGTSTYYADSVKGRFTISRDNAKNTVYLQMNSLKPEDTAVYYCAVIYSWGLWHDYWGQGTQVTVSS | high polyreactivity |
| QVQLVESGGGLVQAGGSLRLSCAASGSIFKSYAMGWYRQAPGKERELVAAISWSGTSTYYADSVKGRFTISRDNAKNTVYLQMNSLKPEDTAVYDCAASGDYGEYGYWGQGTQVTVSS | low polyreactivity |

From the nanobody polyreactivity screen of Harvey et al. (2022)
